The stoichiometry N is a count of units in the complex or per binding partner.

This is an account of results in PMC5105069, “Structural assemblies of the di- and oligomeric G-protein coupled receptor TGR5 in live cells: an MFIS-FRET and integrative modelling study” (Scientific Reports, 2016).

Substitutions are numbered along the chain they refer to. Names may count otherwise.

Data set [1] addresses T1, TGR5 wt fused to GFP or mCherry (TGR5 wt-GFP and TGR5 wt-mCherry), Q8TDU6.
T1 chain: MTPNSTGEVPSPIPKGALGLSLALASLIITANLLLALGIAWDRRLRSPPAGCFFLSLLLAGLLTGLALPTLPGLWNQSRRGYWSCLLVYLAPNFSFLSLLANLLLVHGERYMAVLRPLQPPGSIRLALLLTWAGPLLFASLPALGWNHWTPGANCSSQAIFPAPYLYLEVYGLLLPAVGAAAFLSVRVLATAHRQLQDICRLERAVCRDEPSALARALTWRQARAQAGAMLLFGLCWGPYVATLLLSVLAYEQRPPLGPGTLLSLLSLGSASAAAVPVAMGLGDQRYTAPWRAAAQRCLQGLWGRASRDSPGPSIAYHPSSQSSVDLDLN
Description: FRET or BRET; MFIS-FRET in live HEK293 cells; GFP (donor) and mCherry (acceptor) on the C-terminus of TGR5; acceptor titration up to donor:acceptor 1:40; total TGR5 0.5-13 uM; also before and after 10 uM taurocholate (no change); KD2 is of the step tetramer to dimers, modelled by a dimer/tetramer simulation of E_mean against the donor-acceptor ratio with KD1 of the dimer fixed to 10 nM. To be noted: remark: other sources report otherwise.

Data set [2] deals with the molecule itself. Described as above.

B1: TGR5 wt fused to GFP or mCherry (TGR5 wt-GFP and TGR5 wt-mCherry), Q8TDU6 1-330 (receptor)
chain: T1 chain
As for B1, in data set [1], the KD2 (tetramer to dimers, modeled) was 70 nM and the stoichiometry N was 4.

B2: TGR5 Y111F fused to GFP or mCherry (receptor, UniProt Q8TDU6 1-330, looked up)
chain: T1 chain with Y111F
notes: TGR5 (GPBAR-1, M-BAR) with Y111F in the ERY motif; Two differently tagged copies (GFP donor, mCherry acceptor), co-expressed; Each copy carries only one fluorescent protein; also called Y111F variant; source: HEK293, transiently transfected, in live cells; not shown: GFP, C-terminal, kept; mCherry, C-terminal, kept
As for B2, the “stoichiometry N” value in data set [2] was 4.

B3: TGR5 Y111A fused to GFP or mCherry (receptor, UniProt Q8TDU6 1-330, looked up)
chain: T1 chain with Y111A
notes: TGR5 (GPBAR-1, M-BAR) with Y111A in the ERY motif; Two differently tagged copies (GFP donor, mCherry acceptor), co-expressed; Each copy carries only one fluorescent protein; also called Y111A variant; source: HEK293, transiently transfected, in live cells; not shown: GFP, C-terminal, kept; mCherry, C-terminal, kept
B3: the “stoichiometry N” value in data set [2] is 2.
